Results published in doi:10.1101/2022.11.15.516577.
Where two headings read alike, the source gives them in different places.

Columns and labels:
Assay in all cases: single-molecule TIRF colocalisation with deconvolution of colocalisation times
[1] = molecular target: N-terminally SNAP-tagged human β2AR carrying the vasopressin V2 receptor C-tail (SNAP-β2V2)
[2] = molecular target: N-terminally SNAP-tagged human β2AR carrying the vasopressin V2 receptor C-tail (SNAP-β2V2); remark: listed apart in the source
[3] = molecular target: N-terminally SNAP-tagged human β2AR carrying the vasopressin V2 receptor C-tail (SNAP-β2V2); remark: listed apart in the source

average interaction time [1]: 1 s
average interaction time [2]: 1 s
average interaction time [3]: 1 s
Substance: C-terminally Halo-tagged bovine β-arrestin 2 (βArr2-Halo) (from UniProt P32120-2 1-409) (natural protein)
